This test deals with ヒト可溶性CD4 (human soluble CD4 prepared in Example 2, C-terminal FLAG-tag, from COS7 cells) (human) (UniProt P01730). As to the kind of experiment: SPR (BIAcore 2000), antibody amine-coupled on CM5, soluble CD4 as analyte. (Surface plasmon resonance follows binding to a sensor surface in real time, without labels.)

13B8.2抗体 (イムノテック社) (antibody) registered a Kd of 7.58 nM, a koff of 0.000138 s⁻¹ and a kon of 18200 M⁻¹ s⁻¹.

By Kd is commonly meant the concentration at which binding is half-saturated. As usually defined, the koff is the rate constant with which the complex falls apart. A high value points to fast dissociation. For orientation: kon means a measure of how fast the partners come together. Lower therefore signals slow association.

Source of the values: patent publication JPH11332563A.
